Test results from patent US20220324939A1 (Regeneron, published 2022).

T1: MAGE-A4 peptide on HLA-A*02:01 (human)
T1 peptide: KVLEHVVRV


Experiments:
[1] = target: T1, MAGE-A4 peptide on HLA-A*02:01; test: multimer staining
[2] = target: T2, soluble HLA-A2 (…) tetramer (human); test: flow cytometry, HLA-A2 (…) tetramer staining of CHO cells transfected with the TCR
T2 construct: Bought tetramer reagent; also called MAGE-A4/HLA tetramer reagent; HLA-A02:01 MAGE-A4 tetramer
Protocol: Samples were then analyzed on an LSRFortessa X-20 (BD Biosciences, San Jose, Calif.).

Binder | binding result [1] | % in Ag+ gate >250 MFI, >1% [2] [%]
PN41703 (TCR, V domains shown, stained with anti-mouse TCR constant region H57-597; full-length chains on transfected CHO cells; also called TCR No. 26) V domain 1: DAKTTQPPSMDCAEGRAANLPCNHSTISGNEYVYWYRQIHSQGPQYIIHGLKNNETNEMASLIITEDRKSSTLILPHATLRDTAVYYCIVRPGGTYKYIFGTGTRLKVLA V domain 2: DVKVTQSSRYLVKRTGEKVFLECVQDMDHENMFWYRQDPGLGLRLIYFSYDVKMKEKGDIPEGYSVSREKKERFSLILESASTNQTSMYLCATGGDNQPQHFGDGTRLSIL | recognises | 42.5
PN41867 (TCR, V domains shown, stained with anti-mouse TCR constant region H57-597; full-length chains on transfected CHO cells; also called TCR No. 36) V domain 1: AQTVTQSQPEMSVQEAETVTLSCTYDTSENNYYLFWYKQPPSRQMILVIRQEAYKQQNATENRFSVNFQKAAKSFSLKISDSQLGDTAMYFCAFMKTQGGSEKLVFGKGTKLTVNP V domain 2: AAGVIQSPRHLIKEKRETATLKCYPIPRHDTVYWYQQGPGQDPQFLISFYEKMQSDKGSIPDRFSAQQFSDYHSELNMSSLELGDSALYFCASSLVGYGYTFGSGTRLTVV | recognises | 73
PN41516 (TCR, V domains shown, stained with anti-mouse TCR constant region H57-597; full-length chains on transfected CHO cells; also called TCR No. 4) V domain 1: TQLLEQSPQFLSIQEGENLTVYCNSSSVFSSLQWYRQEPGEGPVLLVTVVTGGEVKKLKRLTFQFGDARKDSSLHITAAQPGDTGLYLCAGERDSWGKFQFGAGTQVVVTP V domain 2: NAGVTQTPKFRILKIGQSMTLQCAQDMNHNYMYWYRQDPGMGLKLIYYSVGAGITDKGEVPNGYNVSRSTTEYFPLRLELAAPSQTSVYFCASSFWTGGDEKLFFGSGTQLSVL | recognises | 7.83
PN41654 (TCR, V domains shown, stained with anti-mouse TCR constant region H57-597; full-length chains on transfected CHO cells; also called TCR No. 22) V domain 1: GESVGLHLPTLSVQEGDNSIINCAYSNSASDYFIWYKQESGKGPQFIIDIRSNMDKRQGQRVTVLLNKTVKHLSLQIAATQPGDSAVYFCAEKRDNYGQNFVFGPGTRLSVLP V domain 2: DVKVTQSSRYLVKRTGEKVFLECVQDMDHENMFWYRQDPGLGLRLIYFSYDVKMKEKGDIPEGYSVSREKKERFSLILESASTNQTSMYLCASSLYSYGYTFGSGTRLTVV | recognises | 36.2
PN41557 (TCR, V domains shown, stained with anti-mouse TCR constant region H57-597; full-length chains on transfected CHO cells; also called TCR No. 11) V domain 1: EDQVTQSPEALRLQEGESSSLNCSYTVSGLRGLFWYRQDPGKGPEFLFTLYSAGEEKEKERLKATLTKKESFLHITAPKPEDSATYLCAVQAVTGGGNKLTFGTGTQLKVEL V domain 2: GAVVSQHPSWVICKSGTSVKIECRSLDFQATTMFWYRQFPKQSLMLMATSNEGSKATYEQGVEKDKFLINHASLTLSTLTVTSAHPEDSSFYICSASWDRDYGYTFGSGTRLTVV | recognises | 8.76
PN41539 (TCR, V domains shown, stained with anti-mouse TCR constant region H57-597; full-length chains on transfected CHO cells; also called TCR No. 9) V domain 1: AQKVTQAQTEISVVEKEDVTLDCVYETRDTTYYLFWYKQPPSGELVFLIRRNSFDEQNEISGRYSWNFQKSTSSFNFTITASQVVDSAVYFCALSEGDTGGFKTIFGAGTRLFVKA V domain 2: NAGVTQTPKFRILKIGQSMTLQCAQDMNHNYMYWYRQDPGMGLKLIYYSVGAGITDKGEVPNGYNVSRSTTEYFPLRLELAAPSQTSVYFCASSYFPDRGLGNTIYFGEGSWLTVV | recognises | 10.9
PN41839 (TCR, V domains shown, stained with anti-mouse TCR constant region H57-597; full-length chains on transfected CHO cells; also called TCR No. 34) V domain 1: DAKTTQPPSMDCAEGRAANLPCNHSTISGNEYVYWYRQIHSQGPQYIIHGLKNNETNEMASLIITEDRKSSTLILPHATLRDTAVYYCIVYGGSQGNLIFGKGTKLSVKP V domain 2: DAGVTQSPTHLIKTRGQQVTLRCSPKSGHDTVSWYQQALGQGPQFIFQYYEEEERQRGNFPDRFSGHQFPNYSSELNVNALLLGDSALYLCASSFSRVQPQHFGDGTRLSIL | recognises | 85.4
PN41805 (TCR, V domains shown, stained with anti-mouse TCR constant region H57-597; full-length chains on transfected CHO cells; also called TCR No. 30) V domain 1: AQTVTQSQPEMSVQEAETVTLSCTYDTSENNYYLFWYKQPPSRQMILVIRQEAYKQQNATENRFSVNFQKAAKSFSLKISDSQLGDTAMYFCAFGMYSGGGADGLTFGKGTHLIIQP V domain 2: AAGVIQSPRHLIKEKRETATLKCYPIPRHDTVYWYQQGPGQDPQFLISFYEKMQSDKGSIPDRFSAQQFSDYHSELNMSSLELGDSALYFCASSPTGTGDGYTFGSGTRLTVV | recognises | 30.4
PN41550 (TCR, V domains shown, stained with anti-mouse TCR constant region H57-597; full-length chains on transfected CHO cells; also called TCR No. 10) V domain 1: QKEVEQNSGPLSVPEGAIASLNCTYSDRGSQSFFWYRQYSGKSPELIMSIYSNGDKEDGRFTAQLNKASQYVSLLIRDSQPSDSATYLCAVNLSWGKFQFGAGTQVVVTP V domain 2: DAGVTQSPTHLIKTRGQQVTLRCSPKSGHDTVSWYQQALGQGPQFIFQYYEEEERQRGNFPDRFSGHQFPNYSSELNVNALLLGDSALYLCASSLDRSTEAFFGQGTRLTVV | recognises | 92.2
PN41829 (TCR, V domains shown, stained with anti-mouse TCR constant region H57-597; full-length chains on transfected CHO cells; also called TCR No. 33) V domain 1: AQTVTQSQPEMSVQEAETVTLSCTYDTSESDYYLFWYKQPPSRQMILVIRQEAYKQQNATENRFSVNFQKAAKSFSLKISDSQLGDAAMYFCAYRSATGNQFYFGTGTSLTVIP V domain 2: DVKVTQSSRYLVKRTGEKVFLECVQDMDHENMFWYRQDPGLGLRLIYFSYDVKMKEKGDIPEGYSVSREKKERFSLILESASTNQTSMYLCASSLFALNTEAFFGQGTRLTVV | recognises | 19.5
PN41613 (TCR, V domains shown, stained with anti-mouse TCR constant region H57-597; full-length chains on transfected CHO cells; also called TCR No. 19) V domain 1: AQTVTQSQPEMSVQEAETVTLSCTYDTSESDYYLFWYKQPPSRQMILVIRQEAYKQQNATENRFSVNFQKAAKSFSLKISDSQLGDAAMYFCAYRSATGNQFYFGTGTSLTVIP V domain 2: EAQVTQNPRYLITVTGKKLTVTCSQNMNHEYMSWYRQDPGLGLRQIYYSMNVEVTDKGDVPEGYKVSRKEKRNFPLILESPSPNQTSLYFCASSLLYSNQPQHFGDGTRLSIL | recognises | 58.7
PN41656 (TCR, V domains shown, stained with anti-mouse TCR constant region H57-597; full-length chains on transfected CHO cells; also called TCR No. 23) V domain 1: AQKITQTQPGMFVQEKEAVTLDCTYDTSDPSYGLFWYKQPSSGEMIFLIYQGSYDQQNATEGRYSLNFQKARKSANLVISASQLGDSAMYFCAMRDLTTSGTYKYIFGTGTRLKVLA V domain 2: DVKVTQSSRYLVKRTGEKVFLECVQDMDHENMFWYRQDPGLGLRLIYFSYDVKMKEKGDIPEGYSVSREKKERFSLILESASTNQTSMYLCASSFGGWGYGYTFGSGTRLTVV | recognises | 13.8
PN41820 (TCR, V domains shown, stained with anti-mouse TCR constant region H57-597; full-length chains on transfected CHO cells; also called TCR No. 31) V domain 1: AQSVTQPGSHVSVSEGALVLLRCNYSSSVPPYLFWYVQYPNQGLQLLLKYTTGATLVKGINGFEAEFKKSETSFHLTKPSAHMSDAAEYFCAVSSGSARQLTFGSGTQLTVLP V domain 2: DVKVTQSSRYLVKRTGEKVFLECVQDMDHENMFWYRQDPGLGLRLIYFSYDVKMKEKGDIPEGYSVSREKKERFSLILESASTNQTSMYLCASSHDRWDYGYTFGSGTRLTVV | recognises | 8.32
PN41852 (TCR, V domains shown, stained with anti-mouse TCR constant region H57-597; full-length chains on transfected CHO cells; also called TCR No. 35) V domain 1: AQTVTQSQPEMSVQEAETVTLSCTYDTSESDYYLFWYKQPPSRQMILVIRQEAYKQQNATENRFSVNFQKAAKSFSLKISDSQLGDAAMYFCAYRSALGNDMRFGAGTRLTVKP V domain 2: DVKVTQSSRYLVKRTGEKVFLECVQDMDHENMFWYRQDPGLGLRLIYFSYDVKMKEKGDIPEGYSVSREKKERFSLILESASTNQTSMYLCASSLWALNTEAFFGQGTRLTVV | recognises | 18
PN41869 (TCR, V domains shown, stained with anti-mouse TCR constant region H57-597; full-length chains on transfected CHO cells; also called TCR No. 38) V domain 1: AQTVTQSQPEMSVQEAETVTLSCTYDTSESDYYLFWYKQPPSRQMILVIRQEAYKQQNATENRFSVNFQKAAKSFSLKISDSQLGDAAMYFCAYRSSTGNQFYFGTGTSLTVIP V domain 2: DVKVTQSSRYLVKRTGEKVFLECVQDMDHENMFWYRQDPGLGLRLIYFSYDVKMKEKGDIPEGYSVSREKKERFSLILESASTNQTSMYLCASSLWGTNEKLFFGSGTQLSVL | recognises | 76.5
PN41868 (TCR, V domains shown, stained with anti-mouse TCR constant region H57-597; full-length chains on transfected CHO cells; also called TCR No. 37) V domain 1: AQTVTQSQPEMSVQEAETVTLSCTYDTSESDYYLFWYKQPPSRQMILVIRQEAYKQQNATENRFSVNFQKAAKSFSLKISDSQLGDAAMYFCAYRSATGNQFYFGTGTSLTVIP V domain 2: DVKVTQSSRYLVKRTGEKVFLECVQDMDHENMFWYRQDPGLGLRLIYFSYDVKMKEKGDIPEGYSVSREKKERFSLILESASTNQTSMYLCASSLWGTHEKLFFGSGTQLSVL | recognises | 67.1
PN41712 (TCR, V domains shown, stained with anti-mouse TCR constant region H57-597; full-length chains on transfected CHO cells; also called TCR No. 27) V domain 1: AQTVTQSQPEMSVQEAETVTLSCTYDTSENNYYLFWYKQPPSRQMILVIRQEAYKQQNATENRFSVNFQKAAKSFSLKISDSQLGDTAMYFCALNTGNQFYFGTGTSLTVIP V domain 2: GAVVSQHPSWVICKSGTSVKIECRSLDFQATTMFWYRQFPKQSLMLMATSNEGSKATYEQGVEKDKFLINHASLTLSTLTVTSAHPEDSSFYICSAWDGFYGYTFGSGTRLTVV | recognises | 20.7
PN41748 (TCR, V domains shown, stained with anti-mouse TCR constant region H57-597; full-length chains on transfected CHO cells; also called TCR No. 29) V domain 1: SQELEQSQQSLIVQEGKNLTINCTSSKTLYGLYWYKQKYGEGLIFLMMLQKGGEEKSHEKITAKLDEKKQQSSLHITASQPSHAGIYLCGADMYSGGGADGLTFGKGTHLIIQP V domain 2: GAVVSQHPSWVICKSGTSVKIECRSLDFQATTMFWYRQFPKQSLMLMATSNEGSKATYEQGVEKDKFLINHASLTLSTLTVTSAHPEDSSFYICSAWDGFYGYTFGSGTRLTVV | recognises | 9.56
